Measurements reported in paper PMC12753870, “A novel fully human anti-ROR1 antibody PBA-0405 optimized for ADCC, induces potent anti-tumor activity against both solid and hematological malignancies” (Frontiers in Immunology, 2025).

Tests used:
recombinant FcγRIIIB = recombinant FcγRIIIB (UniProt O75015); test: SPR; Biacore 8K; biotinylated FcγR immobilised on CAP chip, antibody as analyte in PBS-P+, 30 µL/min; steady state affinity; doses of 22.0405.aF 240-4000 nM for CD32a, 3-200 nM for CD16b; the legend of Supplementary Figure 2 says 'BLI or SPR'
recombinant FcγRIIA 167H = recombinant FcγRIIA 167H (UniProt P12318); test: as above
recombinant FcγRI = recombinant FcγRI (UniProt P12314); test: SPR; Biacore 8K; biotinylated FcγR immobilised on CAP chip, antibody as analyte in PBS-P+, 30 µL/min; 1:1 Langmuir fit, KD = koff/kon; doses of 22.0405.aF 8-500 nM for CD64, 31-2000 nM for CD32b; the legend of Supplementary Figure 2 says 'BLI or SPR'
recombinant FcγRII B/C = recombinant FcγRII B/C (UniProt P31994); test: as above
[1] = molecular target: recombinant FcγRIIIA (CD16), allotype 158F (UniProt P08637); test: SPR; Biacore 8K; biotinylated recombinant FcγR proteins immobilised on CAP chips; antibodies as analytes in PBS-P+ buffer, 30 μL/min; 1:1 Langmuir model
[2] = molecular target: ROR1 endogenously expressed on JeKo-1 cells (human (endogenous in JeKo-1)) (UniProt Q01973)
[3] = molecular target: ROR1 endogenously expressed on JeKo-1 cells (human (endogenous in JeKo-1)) (UniProt Q01973); remark: listed apart in the source
[4] = molecular target: human ROR1 on transfected CHO-K1 cells (CHO-ROR1) (human) (UniProt Q01973)
[5] = molecular target: T1, human ROR2 on transfected CHO-K1 cells (CHO-ROR2) (Homo sapiens, UniProt Q01974); test: flow cytometry on cells; antibody titrated on CHO-K1 cells transfected with ROR1, ROR2 or empty vector, or on cells expressing ROR1 endogenously (JeKo-1); 30 min on ice; detected with APC goat anti-human IgG Fcγ; conditions: one partner purified
T1 construct: receptor tyrosine kinase-like orphan receptor 2 (ROR2), human; also called hROR-2; source: CHO-K1 cells, transfected, on cells

[6] = molecular target: T2, recombinant Ig-like (IG) domain of human ROR1 (aa 39–151) (Homo sapiens, UniProt Q01973); test: BLI; Octet RED384; antibodies immobilised on AR2G sensors; dipped in 500 nM recombinant Ig-like, Frizzled or Kringle domain for 150 s, dissociation 200 s; conditions: both partners purified
T2 construct: ROR1, human, Ig-like domain, aa 39–151; source: bought: Acro Biosystems

[7] = molecular target: T3, recombinant Kringle (KRD) domain of human ROR1 (Homo sapiens, UniProt Q01973); test: as above; conditions: both partners purified
T3 construct: ROR1, human, Kringle (KRD) domain; source: bought: Acro Biosystems

[8] = molecular target: T4, human ROR1 on transfected CHO-K1 cells (CHO-ROR1) (Homo sapiens, UniProt Q01973); test: flow cytometry on cells; antibody titrated on CHO-K1 cells transfected with ROR1, ROR2 or empty vector, or on cells expressing ROR1 endogenously (JeKo-1); 30 min on ice; detected with APC goat anti-human IgG Fcγ; conditions: one partner purified
T4 construct: receptor tyrosine kinase-like orphan receptor 1 (ROR1), human; also called hROR1; CHO cells overexpressing ROR1; source: CHO-K1 cells, stably transfected, on cells

[9] = molecular target: recombinant FcγRIIIA (CD16), allotype 158V (UniProt P08637); test: SPR; Biacore 8K; biotinylated recombinant FcγR proteins immobilised on CAP chips; antibodies as analytes in PBS-P+ buffer, 30 μL/min; 1:1 Langmuir model
[10] = molecular target: T5, recombinant human ROR1/Fc (full-length extracellular domain of ROR1) (Homo sapiens, UniProt Q01973); test: BLI; Octet RED384; antibodies captured on FAB2G (anti-hIgG CH1) biosensors at 5 μg/mL; ROR/Fc as analyte 200–3.13 nM in 10× Kinetics Buffer; 200 s association, 500 s dissociation; 1:2 (bivalent analyte) model; apparent KD = koff1/kon1; conditions: both partners purified
T5 construct: receptor tyrosine kinase-like orphan receptor 1 (ROR1), human, full-length extracellular domain; Fitted as a bivalent analyte (1:2 model); also called hROR1; recombinant extracellular part of ROR1; source: bought: R&D Systems

[11] = molecular target: T6, recombinant mouse ROR1/Fc (Mus musculus, UniProt Q9Z139); test: as above; conditions: both partners purified
T6 construct: ROR1, mouse; also called mROR1; source: bought: R&D Systems
T6 sequence (Q9Z139 30-406): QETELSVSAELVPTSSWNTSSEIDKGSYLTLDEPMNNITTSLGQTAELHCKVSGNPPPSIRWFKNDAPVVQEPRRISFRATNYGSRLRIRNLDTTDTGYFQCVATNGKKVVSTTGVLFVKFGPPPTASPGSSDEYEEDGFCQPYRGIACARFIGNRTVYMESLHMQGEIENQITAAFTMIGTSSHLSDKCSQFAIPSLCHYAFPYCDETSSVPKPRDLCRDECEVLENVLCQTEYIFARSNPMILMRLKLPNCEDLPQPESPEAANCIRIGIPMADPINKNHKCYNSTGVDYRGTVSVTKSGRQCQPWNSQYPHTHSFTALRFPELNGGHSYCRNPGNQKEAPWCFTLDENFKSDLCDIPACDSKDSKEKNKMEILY

Chain of recombinant FcγRIIIA (CD16), allotype 158F (P08637 17-208): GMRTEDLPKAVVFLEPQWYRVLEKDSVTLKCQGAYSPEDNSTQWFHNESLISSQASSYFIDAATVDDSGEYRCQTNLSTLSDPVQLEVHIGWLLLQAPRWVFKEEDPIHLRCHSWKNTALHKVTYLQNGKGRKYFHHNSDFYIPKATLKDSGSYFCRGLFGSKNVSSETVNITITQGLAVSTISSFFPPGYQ
Chain of recombinant FcγRII B/C (P31994 43-217): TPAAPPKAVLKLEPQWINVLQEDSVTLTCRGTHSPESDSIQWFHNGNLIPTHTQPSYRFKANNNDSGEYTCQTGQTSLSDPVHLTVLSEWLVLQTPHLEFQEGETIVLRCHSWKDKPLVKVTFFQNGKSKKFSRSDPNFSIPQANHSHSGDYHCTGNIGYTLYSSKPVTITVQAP
Chain of recombinant FcγRI (P12314 16-292): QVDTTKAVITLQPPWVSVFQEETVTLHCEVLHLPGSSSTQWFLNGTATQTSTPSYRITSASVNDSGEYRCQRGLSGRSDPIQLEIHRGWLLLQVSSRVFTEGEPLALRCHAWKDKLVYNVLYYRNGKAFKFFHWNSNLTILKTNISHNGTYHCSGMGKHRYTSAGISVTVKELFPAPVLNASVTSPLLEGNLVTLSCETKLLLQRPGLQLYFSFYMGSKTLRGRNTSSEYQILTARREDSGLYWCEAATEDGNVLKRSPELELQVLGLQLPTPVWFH
Chain of recombinant FcγRIIIA (CD16), allotype 158V (P08637 17-208 F176V): as the sequence (P08637 17-208) above, with F160V counted along it
Chain of recombinant FcγRIIIB (O75015 17-200): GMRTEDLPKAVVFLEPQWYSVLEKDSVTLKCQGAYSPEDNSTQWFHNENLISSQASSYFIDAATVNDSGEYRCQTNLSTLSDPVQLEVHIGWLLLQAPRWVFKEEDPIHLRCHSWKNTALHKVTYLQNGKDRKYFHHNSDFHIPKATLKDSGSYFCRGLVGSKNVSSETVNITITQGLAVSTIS
Chain of recombinant FcγRIIA 167H (P12318 34-217): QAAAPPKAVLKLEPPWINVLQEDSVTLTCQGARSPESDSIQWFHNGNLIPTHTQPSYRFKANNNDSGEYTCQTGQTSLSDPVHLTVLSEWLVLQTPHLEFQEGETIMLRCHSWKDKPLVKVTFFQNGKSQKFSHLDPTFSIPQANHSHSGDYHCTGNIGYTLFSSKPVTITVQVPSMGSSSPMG

zilovertamab-like antibody
Kd (recombinant FcγRIIIB): > 4000 nM
Kd (recombinant FcγRIIA 167H): 2200 nM
Kd (recombinant FcγRI): 0.054 nM
Kd (recombinant FcγRII B/C): > 4000 nM

zilovertamab-like antibody (anti-ROR1 mAb mimicking zilovertamab, humanized native IgG1)
Kd [1]: 3400 nM

B1: 22.0405.aF (afucosylated form of 22.0405, fully human anti-ROR1 IgG1) (antibody, V domains shown)
VH: EVQLLESGGGLVQPGGSLRLSCAASGFTFHKYGMAWVRQAPGKGLEWVSSIDDRGRYTYYADSVKGRFTISRDNSKNTLYLQMNSLRAEDTAVYYCARGSYIIWSALDYWGQGTLVTVSS
VL: DIQMTQSPSSLSASVGDRVTITCRPNQNIATYINWYQQKPGKAPKLLIYHDNKRPSGVPSRFSGSGSGTDFTLTISSLQPEDFATYYCQQYEKLPWTFGQGTKVEIK
ADCC by healthy donor NK cells against primary B-CLL cells (65%–99% ROR1-positive); EC50 [2]: 0.018 nM
tumor cell killing with total PBMCs as effector cells; EC50 [3]: 0.02 nM
NK cell-mediated ADCC towards Raji cells overexpressing human ROR1 (Raji-ROR1); EC50; no statistically significant ADCC towards wild-type Raji cells [4]: 0.002 nM
Kd [1]: 57 nM

B2: 22.0405 (native, fucose-containing fully human anti-ROR1 IgG1 mAb) (antibody, V domains shown)
VH: EVQLLESGGGLVQPGGSLRLSCAASGFTFHKYGMAWVRQAPGKGLEWVSSIDDRGRYTYYADSVKGRFTISRDNSKNTLYLQMNSLRAEDTAVYYCARGSYIIWSALDYWGQGTLVTVSS
VL: DIQMTQSPSSLSASVGDRVTITCRPNQNIATYINWYQQKPGKAPKLLIYHDNKRPSGVPSRFSGSGSGTDFTLTISSLQPEDFATYYCQQYEKLPWTFGQGTKVEIK
notes: human IgG1 heavy chain constant region; IgG1; source: CHOK1 cells (BioIntron, China)
binding result [5]: no binding
binding result [6]: no binding (tested: 500 nM)
binding result [7]: no binding (tested: 500 nM)
EC50 [8]: 0.56 nM
Kd [1]: 690 nM
Kd [9]: 217 nM
Kd [10]: 60 nM
Kd [11]: 240 nM
